The data set in a line: self-splicing fitness, log relative to wild type (ln ratio); higher = more splicing; Tetrahymena group I intron in knt gene, E. coli kanamycin selection, DiMSum; sequences stand for … in CUCUCU…GGAGGGAAAAGUUAUCAGGCAUGCACCUGGUAGCUAGUCUUUAAACCAAUAGAUUGCAUCGGUUUAAAAGGCAAGACCGUCAAAUUGCGGGAAAGGGGUCAACAGCCGUUCAGUACCAAGUCUCAGGGGAAACUUUGAGAUGGCCUUGCAAAGGGUAUGGUAAUAAGCUGACGGACAUGGUCCUAACCACGCAGCCAAGUCCUAAGUCAACAGAUCUUCUGUUGAUAUGGAUGCAGUUCACAGACUAAAUGUCGGUCGGGGAAGAUGUAUUCUUCUCAUAAGAUAUAGUCGGACCUCUCCUUAAUGGGAGCUAGCGGAUGAAGUGAUGCAACACUGGAGCCGCUGGGAACUAAUUUGUAUGCGAAAGUAUAUUGAUUAGUUUUGGAGUACUCGUGGUCG
The method in brief: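 Library with all eight P1ex-region intron nucleotides randomised, intron inside the knt kanamycin-resistance gene on pET-22b(+), in E. coli BL21(DE3). Cells grew overnight at 37°C or 30°C on LB agar with or without 25 μg/mL kanamycin (plus 100 μg/mL carbenicillin, 50 μM IPTG, 0.2% rhamnose), in six replicate transformations. Pooled colonies were amplicon-sequenced on Illumina HiSeq 2500. DiMSum fitness is the error-weighted combination of wild-type-normalised replicate fold changes, kanamycin versus none.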

This note sets out measurements from the supplement of paper PMC7877785.

± gives the uncertainty stated by the source.

For the sequence GCAGAGCAAUAUUACGCUUU, the “self-splicing fitness (ln)” value (37 °C) is -3.01 ± 0.27.
As to GCAGAGCAAUAUUACGGAAG, the “self-splicing fitness (ln)” value is -2.98 ± 0.28 (30 °C) and -1.65 ± 0.18 (37 °C).
For GCAGAGCAAUAUUACGGUGC, the “self-splicing fitness (ln)” value (30 °C) is -2.67 ± 0.19 and the “self-splicing fitness (ln)” value (37 °C) was -1.9 ± 0.24.
Consider GCAGAGCAAUAUUACGGUUC, for which the “self-splicing fitness (ln)” value (30 °C) is -2.66 ± 0.28 and the “self-splicing fitness (ln)” value (37 °C) is -1.58 ± 0.24.
Take GCAGAGCAAUAUUACGGUUU: the “self-splicing fitness (ln)” value is, setting by setting: (30 °C) -2.82 ± 0.17; (37 °C) -2.08 ± 0.15.
The corresponding values for GCAGAGCAAUAUUACGUAUG are -2.86 ± 0.35 and -1.4 ± 0.42.
GCAGAGCAAUAUUACGUUUC: the “self-splicing fitness (ln)” value is -4.1 ± 0.39 (30 °C) and -2.27 ± 0.44 (37 °C).
Turning to GCAUAGCAAUAUUACGAAUU, the “self-splicing fitness (ln)” value (30 °C) was -2.48 ± 0.2 and the “self-splicing fitness (ln)” value (37 °C) was -1.61 ± 0.2.
GCAUAGCAAUAUUACGAGAG: the “self-splicing fitness (ln)” value (30 °C) is -2.71 ± 0.27 and the “self-splicing fitness (ln)” value (37 °C) was -2.35 ± 0.21.
With GCAUAGCAAUAUUACGAGCA, the “self-splicing fitness (ln)” value reads like this: (30 °C) -1.39 ± 0.23; (37 °C) -0.718 ± 0.2.
In the case of GCAUAGCAAUAUUACGAUAG, the “self-splicing fitness (ln)” value by setting is: (30 °C) -3.12 ± 0.17; (37 °C) -2.34 ± 0.2.
The corresponding values for GCAUAGCAAUAUUACGAUCG are -1.04 ± 0.11 and -0.34 ± 0.12.
The corresponding values for GCAUAGCAAUAUUACGCACU are -0.629 ± 0.09 and -0.277 ± 0.13.
GCAUAGCAAUAUUACGCAGG: the “self-splicing fitness (ln)” value was -2.58 ± 0.21 (30 °C) and -1.35 ± 0.22 (37 °C).
As for GCAUAGCAAUAUUACGCCAA, the “self-splicing fitness (ln)” value is -4.09 ± 0.4 (30 °C) and -2.76 ± 0.35 (37 °C).
On to GCAUAGCAAUAUUACGCCAG, for which the “self-splicing fitness (ln)” value is, setting by setting: (30 °C) -2.88 ± 0.42; (37 °C) -2.94 ± 0.48.
Turning to GCAUAGCAAUAUUACGCGCU, for the setting “37 °C”, the “self-splicing fitness (ln)” value is -2.39 ± 0.31.
On to GCAUAGCAAUAUUACGCGGU, for which the “self-splicing fitness (ln)” value (30 °C) was -3.29 ± 0.16 and the “self-splicing fitness (ln)” value (37 °C) is -1.77 ± 0.16.
The corresponding values for GCAUAGCAAUAUUACGGACG are -1.7 ± 0.088 and -0.659 ± 0.12.
The corresponding values for GCAUAGCAAUAUUACGGCCU are -1.44 ± 0.11 and -0.683 ± 0.11.
As to GCAUAGCAAUAUUACGGCGA, the “self-splicing fitness (ln)” value was -0.526 ± 0.15 (30 °C) and -0.873 ± 0.15 (37 °C).
Regarding GCAUAGCAAUAUUACGGCUA, the “self-splicing fitness (ln)” value (30 °C) is -1.16 ± 0.069 and the “self-splicing fitness (ln)” value (37 °C) is -0.431 ± 0.069.
The corresponding values for GCAUAGCAAUAUUACGGUCC are -1.71 ± 0.098 and -1.48 ± 0.11.
With GCAUAGCAAUAUUACGGUUG, the “self-splicing fitness (ln)” value by setting is: (30 °C) -2.82 ± 0.099; (37 °C) -1.39 ± 0.11.
Consider GCAUAGCAAUAUUACGUCAA, for which the “self-splicing fitness (ln)” value runs as follows: (30 °C) -2.89 ± 0.25; (37 °C) -1.82 ± 0.18.
The corresponding values for GCAUAGCAAUAUUACGUCGG are -2.24 ± 0.14 and -1.47 ± 0.13.
The corresponding values for GCAUAGCAAUAUUACGUGGC are -2.72 ± 0.32 and -2.15 ± 0.31.
Consider GCAUAGCAAUAUUACGUGGG, for which the “self-splicing fitness (ln)” value is -3.68 ± 0.13 (30 °C) and -2.82 ± 0.11 (37 °C).
As to GCAUAGCAAUAUUACGUUCA, the “self-splicing fitness (ln)” value is -1.41 ± 0.11 (30 °C) and -0.882 ± 0.13 (37 °C).
Turning to GCAUAGCAAUAUUACGUUUC, the “self-splicing fitness (ln)” value is -4.77 ± 0.26 (30 °C) and -3.01 ± 0.15 (37 °C).
In the case of GCCAAGCAAUAUUACGACGC, the “self-splicing fitness (ln)” value (30 °C) was -0.669 ± 0.11 and the “self-splicing fitness (ln)” value (37 °C) was 0.3 ± 0.14.
Turning to GCCAAGCAAUAUUACGAGCG, the “self-splicing fitness (ln)” value is, setting by setting: (30 °C) -2.34 ± 0.12; (37 °C) -1.08 ± 0.13.
The corresponding values for GCCAAGCAAUAUUACGAGGA are -1.37 ± 0.1 and -0.561 ± 0.1.
GCCAAGCAAUAUUACGAUAU: the “self-splicing fitness (ln)” value runs as follows: (30 °C) -2.75 ± 0.12; (37 °C) -2.01 ± 0.13.
Regarding GCCAAGCAAUAUUACGAUCA, the “self-splicing fitness (ln)” value reads like this: (30 °C) -3.6 ± 0.21; (37 °C) -1.2 ± 0.11.
For the sequence GCCAAGCAAUAUUACGAUGG, the “self-splicing fitness (ln)” value runs as follows: (30 °C) -3.61 ± 0.15; (37 °C) -1.79 ± 0.16.
GCCAAGCAAUAUUACGCCAA: the “self-splicing fitness (ln)” value is -2.4 ± 0.23 (30 °C) and -1.19 ± 0.15 (37 °C).
For GCCAAGCAAUAUUACGCCCC, the “self-splicing fitness (ln)” value runs as follows: (30 °C) -1.02 ± 0.21; (37 °C) -0.946 ± 0.22.
With GCCAAGCAAUAUUACGCCCG, the “self-splicing fitness (ln)” value reads like this: (30 °C) -2.72 ± 0.29; (37 °C) -0.836 ± 0.32.
For the sequence GCCAAGCAAUAUUACGCUGC, the “self-splicing fitness (ln)” value (30 °C) was -3.01 ± 0.27 and the “self-splicing fitness (ln)” value (37 °C) is -2.04 ± 0.28.
The corresponding values for GCCAAGCAAUAUUACGCUUG are -3.72 ± 0.12 and -2.41 ± 0.14.
The corresponding values for GCCAAGCAAUAUUACGGAUC are -0.959 ± 0.071 and -0.179 ± 0.098.
For GCCAAGCAAUAUUACGGGUU, the “self-splicing fitness (ln)” value reads like this: (30 °C) -2.48 ± 0.09; (37 °C) -1.79 ± 0.1.
Take GCCAAGCAAUAUUACGGUGG: the “self-splicing fitness (ln)” value reads like this: (30 °C) -3.54 ± 0.15; (37 °C) -1.26 ± 0.14.
Take GCCAAGCAAUAUUACGUAAG: the “self-splicing fitness (ln)” value is, setting by setting: (30 °C) -1.37 ± 0.11; (37 °C) -0.513 ± 0.13.
The corresponding values for GCCAAGCAAUAUUACGUCUG are -3.62 ± 0.19 and -2.02 ± 0.16.
The corresponding values for GCCAAGCAAUAUUACGUGCC are -3.36 ± 0.25 and -0.392 ± 0.17.
Regarding GCCAAGCAAUAUUACGUUCG, the “self-splicing fitness (ln)” value was -3.08 ± 0.17 (30 °C) and -1.22 ± 0.13 (37 °C).
For the sequence GCCAAGCAAUAUUACGUUGC, the “self-splicing fitness (ln)” value reads like this: (30 °C) -2.91 ± 0.13; (37 °C) -0.915 ± 0.15.
The corresponding values for GCCAAGCAAUAUUACGUUUU are -2.86 ± 0.085 and -1.3 ± 0.093.
As to GCCCAGCAAUAUUACGAAGA, the “self-splicing fitness (ln)” value runs as follows: (30 °C) -1.46 ± 0.12; (37 °C) -0.344 ± 0.14.
Turning to GCCCAGCAAUAUUACGACGG, the “self-splicing fitness (ln)” value runs as follows: (30 °C) -3.59 ± 0.25; (37 °C) -3.13 ± 0.33.
GCCCAGCAAUAUUACGAUUA: the “self-splicing fitness (ln)” value (30 °C) is -1.71 ± 0.1 and the “self-splicing fitness (ln)” value (37 °C) was -0.936 ± 0.089.
Turning to GCCCAGCAAUAUUACGCACG, the “self-splicing fitness (ln)” value (30 °C) is -3.39 ± 0.2.
As to GCCCAGCAAUAUUACGCCGG, the “self-splicing fitness (ln)” value is -3.34 ± 0.27 (30 °C) and -2.9 ± 0.47 (37 °C).
Consider GCCCAGCAAUAUUACGCGAC, for which the “self-splicing fitness (ln)” value is, setting by setting: (30 °C) -2.9 ± 0.17; (37 °C) -1.55 ± 0.14.
Turning to GCCCAGCAAUAUUACGGAAC, the “self-splicing fitness (ln)” value is, setting by setting: (30 °C) -1 ± 0.055; (37 °C) -0.0936 ± 0.079.
Regarding GCCCAGCAAUAUUACGGACC, the “self-splicing fitness (ln)” value runs as follows: (30 °C) -3.47 ± 0.23; (37 °C) -2.94 ± 0.31.
On to GCCCAGCAAUAUUACGGGAU, for which the “self-splicing fitness (ln)” value reads like this: (30 °C) -1.74 ± 0.081; (37 °C) -1.25 ± 0.1.
The corresponding values for GCCCAGCAAUAUUACGGUAC are -1.27 ± 0.059 and -0.241 ± 0.073.
